Results taken from patent CN105330739A (WATERSTONE PHARMACEUTICALS WUHAN CO LTD, dated 2016).

Target: T1, 鼠VEGF (mouse, UniProt Q00731-2 27-190, limits assumed)
T1 construct: Coated on the ELISA plate at 0.5 ug/ml; also called mouse VEGF
T1 sequence (looked up): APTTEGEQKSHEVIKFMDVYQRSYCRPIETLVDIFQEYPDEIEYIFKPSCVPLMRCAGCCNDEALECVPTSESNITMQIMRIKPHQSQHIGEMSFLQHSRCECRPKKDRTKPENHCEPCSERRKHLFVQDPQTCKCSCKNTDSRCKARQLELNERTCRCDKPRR
Experiment: ELISA, mouse VEGF coated at 0.5 ug/ml

binding result: no binding
B1: NevegiMab抗体 (antibody, V domains shown)
VH: EVKLQESGPELKKPGETVKISCKASGYTFTNYGLNWVKQAPGKGLKWMGWINTYTGEPTYADDFKGRFAFSLETSASTAYLQINNLKNEDMATYFCAKYGITYEWYFDVWGAGTTVTVSS
VL: DIVLTQSTSSLSASLGDRVTISCRASQDISNSLNWYQQKPNGTVILLIYYTSRLHSGVPSRFSGSGSGAVYSLTISDLEQEDIATYFCQQGNTFPWTFGGGTKLEIKR
notes: Mouse monoclonal antibody purified from hybridoma supernatant; also called 单抗NevegiMab; 单克隆抗体NevegiMab
